# Experimental data reported in patent US20240059797A1 (GRITSTONE BIO, published 2024).
# Molecular target: HLA-A*02:01_… (HLA-PEPTIDE target G8), recombinant complex (human, enzymatically biotinylated (BirA) for screening and functional assays)
# Experiment: scFv PPE ELISA
row,fold selective binding to target pHLA over minipool of negative control pHLAs [fold],Binder
1,≥ 3,"G8(5F02) scFv (scFv, V domains shown) VH: QVQLVQSGAEVKKPGASVKVSCKASGYTFTGYYIHWVRQAPGQGLEWMGVINPSGGSTTYAQKLQGRVTMTRDTSTSTVYMELSSLRSEDTAVYYCARDRDSSWTYYYYGMDVWGQGTTVTVSS VL: EIVMTQSPATLSVSPGERATLSCRASQSVGNSLAWYQQKPGQAPRLLIYGASTRATGIPARFSGSGSGTEFTLTISSLQSEDFAVYYCQQYGSSPYTFGQGTKVEIK"
2,≥ 3,"G8(2E04) scFv (scFv, V domains shown) VH: QVQLVQSGAEVKKPGSSVKVSCKASGGTFSSYGVSWVRQAPGQGLEWMGWISPYSGNTDYAQKFQGRVTITADESTSTAYMELSSLRSEDTAVYYCARGLYYMDVWGKGTTVTVSS VL: DIQMTQSPSSLSASVGDRVTITCRASQSISSWLAWYQQKPGKAPKLLIYDASNLETGVPSRFSGSGSGTDFTLTISSLQPEDFATYYCQQSYSTPLTFGGGTKLEIK"
3,≥ 3,"G8(4F05) scFv (scFv, V domains shown) VH: QVQLVQSGAEVKKPGASVKVSCKASGYTFSNMYLHWVRQAPGQGLEWMGWINPNTGDTNYAQTFQGRVTMTRDTSTSTVYMELSSLRSEDTAVYYCARGLYGDYFLYYGMDVWGQGTKVTVSS VL: DIQMTQSPSSLSASVGDRVTITCRASQGISNYLAWYQQKPGKAPKLLIYAASTLQSGVPSRFSGSGSGTDFTLTISSLQPEDFATYYCQQSYSTPLTFGGGTKVEIK"
4,≥ 3,"G8(5C03) scFv (scFv, V domains shown) VH: QVQLVQSGAEVKKPGASVKVSCKASGYTFTSYYMHWVRQAPGQGLEWMGWMNPNSGNTGYAQKFQGRVTMTRDTSTSTVYMELSSLRSEDTAVYYCARGLLGFGEFLTYGMDVWGQGTLVTVSS VL: DIQMTQSPSSLSASVGDRVTITCRASQGISNWLAWYQQKPGKAPKLLIYAASTLQSGVPSRFSGSGSGTDFTLTISSLQPEDFATYYCQQTYSTPWTFGQGTKLEIK"
5,≥ 3,"G8(1C01) scFv (scFv, V domains shown) VH: QVQLVQSGAEVKKPGASVKVSCKASGGTFSSHAISWVRQAPGQGLEWMGVIIPSGGTSYTQKFQGRVTMTRDTSTSTVYMELSSLRSEDTAVYYCARGDYYDSSGYYFPVYFDYWGQGTLVTVSS VL: DIQMTQSPSSLSASVGDRVTITCRASQNIYTYLNWYQQKPGKAPKLLIYDASNLETGVPSRFSGSGSGTDFTLTISSLQPEDFATYYCQQANGFPLTFGGGTKVEIK"
6,≥ 3,"G8(2C11) scFv (scFv, V domains shown) VH: QVQLVQSGAEVKKPGASVKVSCKASGYTFTSYAMNWVRQAPGQGLEWMGWINPNSGGTNYAQKFQGRVTMTRDTSTSTVYMELSSLRSEDTAVYYCARDPFWSGHYYYYGMDVWGQGTTVTVSS VL: not shown"
7,≥ 3,"G8(5G08) scFv (scFv, V domains shown) VH: QVQLVQSGAEVKKPGASVKVSCKASGYTFTSNYMHWVRQAPGQGLEWMGWMNPNSGNTGYAQKFQGRVTMTRDTSTSTVYMELSSLRSEDTAVYYCARGLYGDYFLYYGMDVWGQGTTVTVSS VL: not shown"

# Molecular target: HLA-A*01:01_… (HLA-PEPTIDE target G10), recombinant biotinylated complex (human, enzymatically biotinylated (BirA))
# Experiment: scFv PPE ELISA
row,fold selective binding to target pHLA over minipool of negative control pHLAs [fold],Binder
1,≥ 3,"G10(1B07) scFv (scFv, V domains shown) VH: QVQLVQSGAEVKKPGASVKVSCKASGYTFTSYYMHWVRQAPGQGLEWMGIIHPGGGTTSYAQKFQGRVTMTRDTSTSTVYMELSSLRSEDTAVYYCARDKVYGDGFDPWGQGTLVTVSS VL: DIQMTQSPSSLSASVGDRVTITCRASQSISRWLAWYQQKPGKAPKLLIFDASRLQSGVPSRFSGSGSGTDFTLTISSLQPEDFATYYCQQAEAFPYTFGQGTKVEIK"
2,≥ 3,"G10(4D04) scFv (scFv, V domains shown) VH: QVQLVQSGAEVKKPGASVKVSCKASGYTFTGYYVHWVRQAPGQGLEWMGIIAPSDGSTNYAQKFQGRVTMTRDTSTSTVYMELSSLRSEDTAVYYCARDPGGYMDVWGKGTTVTVSS VL: DIQMTQSPSSLSASVGDRVTITCRASQSISSYLAWYQQKPGKAPKLLIYDASKLETGVPSRFSGSGSGTDFTLTISSLQPEDFATYYCQQSYGVPTFGQGTKLEIK"
3,≥ 3,"G10(4E07) scFv (scFv, V domains shown) VH: QVQLVQSGAEVKKPGSSVKVSCKASGYTFTGYYMHWVRQAPGQGLEWMGRISPSDGSTTYAPKFQGRVTITADESTSTAYMELSSLRSEDTAVYYCARDMGDAFDIWGQGTTVTVSS VL: not shown"
4,≥ 3,"G10(1A07) scFv (scFv, V domains shown) VH: EVQLLESGGGLVKPGGSLRLSCAASGFTFSSYWMSWVRQAPGKGLEWVSGISARSGRTYYADSVKGRFTISRDDSKNTLYLQMNSLKTEDTAVYYCARDQDTIFGVVITWFDPWGQGTLVTVSS VL: DIQMTQSPSSLSASVGDRVTITCRASQGISNYLAWYQQKPGKAPKLLIYAASSLQGGVPSRFSGSGSGTDFTLTISSLQPEDFATYYCQQYFTTPYTFGQGTKLEIK"
5,≥ 3,"G10(1H08) scFv (scFv, V domains shown) VH: QVQLVQSGAEVKKPGASVKVSCKASGVTFSTSAISWVRQAPGQGLEWMGWISPYNGNTDYAQMLQGRVTMTRDTSTSTVYMELSSLRSEDTAVYYCARDAHQYYDFWSGYYSGTYYYGMDVWGQGTTVTVSS VL: DIQMTQSPSSLSASVGDRVTITCRASQGISNYLAWYQQKPGKAPKLLIYSASNLQSGVPSRFSGSGSGTDFTLTISSLQPEDFATYYCQQAYSFPWTFGQGTKVEIK"
6,≥ 3,"G10(3E04) scFv (scFv, V domains shown) VH: QVQLVQSGAEVKKPGASVKVSCKASGNTFIGYYVHWVRQAPGQGLEWVGIINPNGGSISYAQKFQGRVTMTRDTSTSTVYMELSSLRSEDTAVYYCARGSGDPNYYYYYGLDVWGQGTTVTVSS VL: DIQMTQSPSSLSASVGDRVTITCQASQDISNYLNWYQQKPGKAPKLLIYAASNLQSGVPSRFSGSGSGTDFTLTISSLQPEDFATYYCQQANSLPYTFGQGTKVEIK"
7,≥ 3,"G10(1H01) scFv (scFv, V domains shown) VH: QVQLVQSGAEVKKPGASVKVSCKASGYTFTGYYMHWVRQAPGQGLEWMGMIGPSDGSTSYAQKFQGRVTMTRDTSTSTVYMELSSLRSEDTAVYYCARGVGNLDYWGQGTLVTVSS VL: DIQMTQSPSSLSASVGDRVTITCRASQSISNYLNWYQQKPGKAPKLLIYAASSLQSGVPSRFSGSGSGTDFTLTISSLQPEDFATYYCHQTYSTPLTFGQGTKVEIK"
8,≥ 3,"G10(1E12) scFv (scFv, V domains shown) VH: QVQLVQSGAEVKKPGASVKVSCKASGYIFTGYYMHWVRQAPGQGLEWMGMIGPSDGSTSYAQKFQGRVTMTRDTSTSTVYMELSSLRSEDTAVYYCAREDDSMDVWGKGTTVTVSS VL: not shown"
9,≥ 3,"G10(4C05) scFv (scFv, V domains shown) VH: QVQLVQSGAEVKKPGASVKVSCKASGYTFTGYYMHWVRQAPGQGLEWMGIIGPSDGSTTYAQKFQGRVTMTRDTSTSTVYMELSSLRSEDTAVYYCARAENGMDVWGQGTTVTVSS VL: DIQMTQSPSSLSASVGDRVTITCRASQRISSYLNWYQQKPGKAPKLLIYSASTLQSGVPSRFSGSGSGTDFTLTISSLQPEDFATYYCQQSYSTPFTFGPGTKVDIK"
10,≥ 3,"G10(4E12) scFv (scFv, V domains shown) VH: QVQLVQSGAEVKKPGASVKVSCKASGYTFTGYYMHWVRQAPGQGLEWMGMIGPSDGSTSYAQRFQGRVTMTRDTSTSTVYMELSSLRSEDTAVYYCAREEDGMDVWGQGTTVTVSS VL: DIQMTQSPSSLSASVGDRVTITCRASQGISTYLAWYQQKPGKAPKLLIYDASSLQSGVPSRFSGSGSGTDFTLTISSLQPEDFATYYCQQYYSYPWTFGQGTRLEIK"
11,≥ 3,"G10(2C04) scFv (scFv, V domains shown) VH: QVQLVQSGAEVKKPGASVKVSCKASGGTFSNSIINWVRQAPGQGLEWMGWMNPNSGNTNYAQKFQGRVTMTRDTSTSTVYMELSSLRSEDTAVYYCAREQWPSYWYFDLWGRGTLVTVSS VL: not shown"
12,≥ 3,"G10(1F06) scFv (scFv, V domains shown) VH: QVQLVQSGAEVKKPGASVKVSCKASGYTFIGYYMHWVRQAPGQGLEWMGMIGPSDGSTSYAQKFQGRVTMTRDTSTSTVYMELSSLRSEDTAVYYCARDSSGLDPWGQGTLVTVSS VL: DIQMTQSPSSLSASVGDRVTITCRASQSISNYLNWYQQKPGKAPKLLIYKASSLESGVPSRFSGSGSGTDFTLTISSLQPEDFATYYCQQSYIIPYTFGQGTKLEIK"
13,≥ 3,"G10(2G11) scFv (scFv, V domains shown) VH: QVQLVQSGAEVKKPGASVKVSCKASGGTFSTHDINWVRQAPGQGLEWMGVINPSGGSAIYAQKFQGRVTMTRDTSTSTVYMELSSLRSEDTAVYYCARDRGYSYGYFDYWGQGTLVTVSS VL: DIQMTQSPSSLSASVGDRVTITCRASQDISRYLAWYQQKPGKAPKLLIYDASNLETGVPSRFSGSGSGTDFTLTISSLQPEDFATYYCQQANSFPRTFGQGTKVEIK"
14,≥ 3,"G10(4D10) scFv (scFv, V domains shown) VH: QVQLVQSGAEVKKPGASVKVSCKASGYTFTGYYLHWVRQAPGQGLEWMGMIGPSDGSTSYAQKFQGRVTMTRDTSTSTVYMELSSLRSEDTAVYYCARDGDAFDIWGQGTMVTVSS VL: DIQMTQSPSSLSASVGDRVTITCRASQGISSWLAWYQQKPGKAPKLLIYDASNLETGVPSRFSGSGSGTDFTLTISSLQPEDFATYYCQQSYSTPLTFGGGTKVEIK"
15,≥ 3,"G10(4A02) scFv (scFv, V domains shown) VH: QVQLVQSGAEVKKPGASVKVSCKASGYTLSYYYMHWVRQAPGQGLEWMGMIGPSDGSTSYAQRFQGRVTMTRDTSTGTVYMELSSLRSEDTAVYYCARDTGDHFDYWGQGTLVTVSS VL: not shown"
16,≥ 3,"G10(4G06) scFv (scFv, V domains shown) VH: QVQLVQSGAEVKKPGASVKVSCKASGYTLSYYYMHWVRQAPGQGLEWMGMIGPSDGSTSYAQRFQGRVTMTRDTSTGTVYMELSSLRSEDTAVYYCARDTGDHFDYWGQGTLVTVSS VL: not shown"
